Experimental data taken from publication PMC5770610, “Structure and function of urea amidolyase” (Bioscience Reports, 2018).
Positions count from the first letter of the chain named. Names and notes keep the numbering of the source.

Columns and labels:
[1] = biological target: the molecule itself; assay: SEC; analytical gel filtration, Superose 6 HR column; 0.25 mg protein injected; 20 mM Tris/HCl pH 8.0, 200 mM NaCl; calibrated with standards of 29-669 kDa
[2] = substrate: NC(=O)NC(=O)O; assay: glutamate dehydrogenase-coupled NADH assay of ammonium; type: biochemical, Kluyveromyces lactis; conditions: AH activity, 6 mM MgCl2, 20 mM KCl, pH 8.0, substrate as potassium salt
Source text: (§1) glutamate dehydrogenase-coupled NADH assay of ammonium on KlUA

[3] = substrate: NC(N)=O; assay: as above; type: biochemical, Kluyveromyces lactis; conditions: overall UA activity, 5 mM ATP, 12.5 mM bicarbonate, 11 mM MgCl2, 20 mM KCl
Source text: as §1

[4] = pH 8.0, mutation at AH dimer interface
[5] = pH 8.0, mutation in AH N domain active site
[6] = pH 8.0, mutation in UC CT active site

B1: KlUAΔBCCP (Kluyveromyces lactis urea amidolyase residues 1-1741, BCCP domain removed) (domain or fragment, UniProt Q6CP22 1-1741, looked up)
chain: MESTLGWSVQDWLSFHSKSTPTKSLELLENLLKSQKPAPEDPAWISLIPVEDLHHQWNILQSKSNKEELPLYGVPIAVKDNIDYKGLPTTAACPSYLYQPTRDSYVVELLRDAGAVVIGKTNLDQFATGLVGTRSPYGKTPCVFNDKYVSGGSSAGSASVVGRGIVPLSLGTDTAGSGRVPAALNNLIGLKPTKGAFSCRGVVPACKSLDCVSVFALNLSDAEIAFKVMNKPDLLEDEYSREFPKNPISQYPKDLTIAIPKEVPWFGETENPKLYTKAVASLKNTGAKIVVVDFEPLLELARCLYEGAWVAERYCATRDFLATNPPESSLDETVVNIIKGAVKFDAADAFKFEYKRQGILQKVNLLLKDIDVLCVPTCPLNPKLEEVAQEPVLVNSRQGTWTNFVNLADLAALAVPSGFRSDGLPNGITLIGKKFSDYALLDLAKRFFSVAFPNNSRTYGKFVDRRITVEDELDGPSKDTLNGVKLAVVGAHLKGLPLHWQLQKCNATYLSSPKTSNNYKLYALPKVGPVLKPGLRRVNDGTGSQIQLEVYSVPYDRFGDFIAMVPEPLGIGSVELESGEWVKSFICEEFGYTQQGTVDITKFGGFKPYIEHIQVTEAQKKKPFETVLIANRGEIAVRIMKTLKRMGIKSVAVYSDPDKYSQHVTDADFSVALHGRTAAETYLDIDKIINAAKKTGAQAIIPGYGFLSENADFSDRCSQENIVFVGPSGDAIRKLGLKHSAREIAERAKVPLVPGSGLIKDAKEAKEVAKKLEYPVMVKSTAGGGGIGLQKVDSEDDIERVFETVQHQGKSYFGDAGVFMERFVNNARHVEIQMMGDGFGKAIAIGERDCSLQRRNQKVIEETPAPNLPEATRAKMRAASERLGSLLKYKCAGTVEFIYDEQRDEFYFLEVNARLQVEHPITEMVTGLDLVEWMLRIAANDSPDFDNTKIEVSGASIEARLYAENPVKDFRPSPGQLTSVSFPSWARVDTWVKKGTNVSAEYDPTLAKIIVHGKDRNDAIMKLNQALNETAVYGCITNIDYLRSIASSKMFKEAKVATKVLDSFDYKPCAFEVLAPGANTSVQDYPGRTGYWRIGVPPSGPMDSYSFRLANRVVGNNSKSPALEITLNGPKLLFHTETVIAVSGGTVSCTLNDAQIAQNEPIEVKRGDILSVGKVTVGCRAYLSIRGGIDVPEYLGSRSTFAMGNMGGYNGRILKLGDVLFLNQPELSVSSLPAPDFEPQAAPKSLLPTLSTNKDWKIGVTCGPHGSIDLFKEEYIEQFFNDKWKVHYNSNRFGVRLIGPKPKWARSDGGEAGLHPSNAHDYVYSLGAINFTGDEPVIITCDGPSLGGFVCQAVVAEAELWKVGQLTPGDTIQFVPLSYGVARQLKESQDKSIDNFEEGSLLELSDDKILPKYENPILAVLPKKSDLSPKVTYRQAGDRYILVEYGELEFDLNICYRINRLIHQVERHQTVGIVEMSQGVRSVLIEFDGSKINQKALLKCLIAYESEIQFDKNWNVKSKIFKLPMAFEDSKTLDCVTRYRETIRSEAPWLPNNVDFIADVNDIDRNDVKNMLYSAKFMVLGLGDVFLGSPCAVPLDPRHRYLGTKYNPSRTYTARGVVGIGGMYMCIYNAEGSPGGYQLVGRTITAWDKLVIGDHPIDHPWLLTPFDQVEFYPVTEEELEVIIEDNDNGKFKIDVEESIFDHKEYLAWINENIDSIVAFQEAQGGEKADEFARLIQVANAE
notes: urea amidolyase of Kluyveromyces lactis, residues 1-1741 (stop codon inserted after base pair 5223); lacks the C-terminal BCCP domain; monomer 190 kDa; also called KIUAΔBCCP; source: E. coli BL21 (DE3) Star, purified (Ni-NTA, anion exchange, size exclusion)
With B1 the “stoichiometry N” value [1] was 2.

B2: Kluyveromyces lactis urea amidolyase, full length (enzyme, UniProt Q6CP22 1-1829, looked up)
chain: MESTLGWSVQDWLSFHSKSTPTKSLELLENLLKSQKPAPEDPAWISLIPVEDLHHQWNILQSKSNKEELPLYGVPIAVKDNIDYKGLPTTAACPSYLYQPTRDSYVVELLRDAGAVVIGKTNLDQFATGLVGTRSPYGKTPCVFNDKYVSGGSSAGSASVVGRGIVPLSLGTDTAGSGRVPAALNNLIGLKPTKGAFSCRGVVPACKSLDCVSVFALNLSDAEIAFKVMNKPDLLEDEYSREFPKNPISQYPKDLTIAIPKEVPWFGETENPKLYTKAVASLKNTGAKIVVVDFEPLLELARCLYEGAWVAERYCATRDFLATNPPESSLDETVVNIIKGAVKFDAADAFKFEYKRQGILQKVNLLLKDIDVLCVPTCPLNPKLEEVAQEPVLVNSRQGTWTNFVNLADLAALAVPSGFRSDGLPNGITLIGKKFSDYALLDLAKRFFSVAFPNNSRTYGKFVDRRITVEDELDGPSKDTLNGVKLAVVGAHLKGLPLHWQLQKCNATYLSSPKTSNNYKLYALPKVGPVLKPGLRRVNDGTGSQIQLEVYSVPYDRFGDFIAMVPEPLGIGSVELESGEWVKSFICEEFGYTQQGTVDITKFGGFKPYIEHIQVTEAQKKKPFETVLIANRGEIAVRIMKTLKRMGIKSVAVYSDPDKYSQHVTDADFSVALHGRTAAETYLDIDKIINAAKKTGAQAIIPGYGFLSENADFSDRCSQENIVFVGPSGDAIRKLGLKHSAREIAERAKVPLVPGSGLIKDAKEAKEVAKKLEYPVMVKSTAGGGGIGLQKVDSEDDIERVFETVQHQGKSYFGDAGVFMERFVNNARHVEIQMMGDGFGKAIAIGERDCSLQRRNQKVIEETPAPNLPEATRAKMRAASERLGSLLKYKCAGTVEFIYDEQRDEFYFLEVNARLQVEHPITEMVTGLDLVEWMLRIAANDSPDFDNTKIEVSGASIEARLYAENPVKDFRPSPGQLTSVSFPSWARVDTWVKKGTNVSAEYDPTLAKIIVHGKDRNDAIMKLNQALNETAVYGCITNIDYLRSIASSKMFKEAKVATKVLDSFDYKPCAFEVLAPGANTSVQDYPGRTGYWRIGVPPSGPMDSYSFRLANRVVGNNSKSPALEITLNGPKLLFHTETVIAVSGGTVSCTLNDAQIAQNEPIEVKRGDILSVGKVTVGCRAYLSIRGGIDVPEYLGSRSTFAMGNMGGYNGRILKLGDVLFLNQPELSVSSLPAPDFEPQAAPKSLLPTLSTNKDWKIGVTCGPHGSIDLFKEEYIEQFFNDKWKVHYNSNRFGVRLIGPKPKWARSDGGEAGLHPSNAHDYVYSLGAINFTGDEPVIITCDGPSLGGFVCQAVVAEAELWKVGQLTPGDTIQFVPLSYGVARQLKESQDKSIDNFEEGSLLELSDDKILPKYENPILAVLPKKSDLSPKVTYRQAGDRYILVEYGELEFDLNICYRINRLIHQVERHQTVGIVEMSQGVRSVLIEFDGSKINQKALLKCLIAYESEIQFDKNWNVKSKIFKLPMAFEDSKTLDCVTRYRETIRSEAPWLPNNVDFIADVNDIDRNDVKNMLYSAKFMVLGLGDVFLGSPCAVPLDPRHRYLGTKYNPSRTYTARGVVGIGGMYMCIYNAEGSPGGYQLVGRTITAWDKLVIGDHPIDHPWLLTPFDQVEFYPVTEEELEVIIEDNDNGKFKIDVEESIFDHKEYLAWINENIDSIVAFQEAQGGEKADEFARLIQVANAELKKSGDDKPQDVEEYPDDAELLYSEYTGRFWKPVAAVGDHVEAGDGVIIIEAMKTEMVVGATKSGKVYKILHKNGDMVEAGDLVAVIV
notes: urea amidolyase (AH domain followed by UC domain: BC, CT, BCCP) of Kluyveromyces lactis, gene amplified from the K. lactis genome; monomer 202 kDa; also called KlUA; full-length KlUA; source: expression and purification followed protocols reported previously [14,17]; purified
For B2, the Km [2] was 360 ± 37 µM, the kcat [2] was 34.2 ± 0.683 s⁻¹ and the kcat/Km [2] was 94900 ± 11700 M⁻¹ s⁻¹. For the same protein, the Km ([3]; pH 8.0) was 255 ± 18 µM, the kcat ([3]; pH 8.0) was 13.9 ± 0.183 s⁻¹ and the kcat/Km ([3]; pH 8.0) was 54600 ± 4600 M⁻¹ s⁻¹. The “stoichiometry N” value [1] was 2.

B3: KlUA (Kluyveromyces lactis NRRL Y-1140; G559E/G572E) (protein)
chain: B2 chain with G559E, G572E
notes: full-length enzyme, AH + UC domains; recombinant in E. coli BL21(DE3) Star (pET28A, nickel column); homodimer, monomer 202 kDa
Work on B3 yielded a Km ([2]; mutation at AH dimer interface) of 1040 ± 183 µM, a kcat ([2]; mutation at AH dimer interface) of 7.85 ± 0.367 s⁻¹ and a kcat/Km ([2]; mutation at AH dimer interface) of 7550 ± 1680 M⁻¹ s⁻¹. It also gave a Km [3, 4] of 361 ± 32 µM, a kcat [3, 4] of 3 ± 0.0533 s⁻¹ and a kcat/Km [3, 4] of 8320 ± 900 M⁻¹ s⁻¹.

B4: KlUA (Kluyveromyces lactis NRRL Y-1140; S177A) (protein)
chain: B2 chain with S177A
notes: as for B3
Work on B4 yielded a Km [3, 5] of 203 ± 20 µM, a kcat [3, 5] of 0.785 ± 0.0133 s⁻¹ and a kcat/Km [3, 5] of 3870 ± 450 M⁻¹ s⁻¹.

B5: KlUA (Kluyveromyces lactis NRRL Y-1140; K1605A) (protein)
chain: B2 chain with K1605A
notes: as for B3
With B5 the Km [3, 6] was 299 ± 39 µM, the kcat [3, 6] was 1.33 ± 0.0333 s⁻¹ and the kcat/Km [3, 6] was 4450 ± 683 M⁻¹ s⁻¹.
